Measurements reported in paper PMC4486061 (Journal of Structural Biology, 2010).
Several values for one entry are separate records, joined by “and”; a condition that tells them apart may be missing. Identical values can stand only once.

Biological target: the molecule itself
Test: PFO-PAGE

B1: SARS-CoV M protein endodomain, residues 107-221 (M_(107-221)) (domain or fragment)
chain: SMWSFNPETNILLNVPLRGTIVTRPLMESELVIGAVIIRGHLRMAGHSLGRCDIKDLPKEITVATSRTLSYYKLGASQRVGTDSGFAAYNRYRIGNYKLNTDHAGSNDNIALLVQ
stoichiometry N: 2 and 4 and 6
